Data on 3 molecules can be found in patent US20230331852A1 (OSE IMMUNOTHERAPEUTICS, published 2023).

Assay [1] concerns the target T1, Fc-CLEC1 labelled with Alexa Fluor 488 (human, Alexa Fluor 488 label (sites not given)).
T1 construct: also called Fc-CLEC1-A488; Alexa488-Fc-Clec-1
T1 chain: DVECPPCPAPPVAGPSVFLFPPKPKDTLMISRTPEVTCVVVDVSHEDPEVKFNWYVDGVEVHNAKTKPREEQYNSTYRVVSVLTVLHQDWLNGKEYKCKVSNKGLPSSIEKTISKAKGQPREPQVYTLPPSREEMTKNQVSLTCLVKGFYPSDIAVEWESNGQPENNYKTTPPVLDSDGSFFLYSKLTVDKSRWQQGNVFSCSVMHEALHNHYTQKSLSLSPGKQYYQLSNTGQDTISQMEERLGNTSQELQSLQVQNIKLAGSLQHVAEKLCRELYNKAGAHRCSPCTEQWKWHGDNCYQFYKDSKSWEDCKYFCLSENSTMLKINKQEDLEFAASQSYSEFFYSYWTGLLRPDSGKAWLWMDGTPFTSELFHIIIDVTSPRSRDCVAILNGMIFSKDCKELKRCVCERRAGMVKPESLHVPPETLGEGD
The experiment in a line: FACS competition: blocks Fc-CLEC1-A488 (10 nM) binding to CLEC-1 ligand on UV-treated PBMC. As to the method:
(§1) Competition were also measured on UV pre-treated pro-apoptotic human PBMCs, which can also express the ligand after a treatment under UV radiation for 18 hours. After UV treatment, cells were first washed in cold-PSE and then blocked during 30 min at room temperature with human Fc-block 50-fold diluted in PSE, and then replaced on ice. Purified anti-Clec antibodies at different concentrations were pre-incubated with Alexa488-Fc-Clec-1 in PSE at different concentrations for 15 min at room temperature. Pre-incubated mixes were then incubated on Fc-blocked/SAB (#34005-100, Invitrogen, Illkirch, France) pro-apoptotic PBMCs for 30 min on ice. Binding on cells were then fixed by PFA 2% in cold PBS for 10 min on ice and analyzed on CytoFlex cytofluorometer (Beckman Coulter France, Villepinte).
(§2) Methods. To measure competition on permeabilised Raji (CytoFix/cytoperm kit, BD Biosciences) which expressed CLEC1 ligand, Fc-CLEC1-labelled A488 which bound specifically to permeabilised Raji was used. To measure competition, Fc-CLEC1 labelled A488 at 10 nM or 20 nM was mixed with mouse anti-hCLEC1 at different concentrations for 15 min at RT then added on these cells for 30 min at 4° C. […] To measure competition on PMBC, we used human PBMC pre-treated by UV for 18 h to obtain apoptotic PBMC, which expressed CLEC1 ligand. Fc-CLEC1-labelled A488 bound specifically apoptotic UV-treated PBMC. To measure competition, Fc-CLEC1 labelled A488 at 10 nM was mixed with mouse anti-hCLEC1 at different concentrations for 15 min at RT then added on these cells for 30 min at 4° C.

Assay [2] deals with T1, Fc-CLEC1 labelled with Alexa Fluor 488. The assay is described as follows: FACS competition: blocks Fc-CLEC1-A488 (10 nM) binding to CLEC-1 ligand on permeabilised Raji cells; IC50 median. The method, then: (§3) To measure competition, purified anti-Clec antibodies at different concentrations were pre-incubated in Perm Wash Buffer with Alexa488-Fc-Clec-1 for 15 min at room temperature. Pre-incubated mixes were then incubated on permeabilized and Fc-blocked Raji cells for 30 min on ice. Binding on cells were then fixed by PFA 2% in cold PBS for 10 min on ice and analyzed on CytoFlex cytofluorometer (Beckman Coulter France, Villepinte).
as §2

Assay [3] concerns the target T2, human CLEC-1A expressed on the cell membrane (human, UniProt Q8NC01 1-280).
T2 construct: Endogenous on human U266 myeloma cells, on monocyte-derived TGFb-DC and macrophages; on CHO cells after transduction with a Clec-1 expressing lentivirus; also called U266 CLEC1; CLEC-1A on U266 cells
T2 sequence: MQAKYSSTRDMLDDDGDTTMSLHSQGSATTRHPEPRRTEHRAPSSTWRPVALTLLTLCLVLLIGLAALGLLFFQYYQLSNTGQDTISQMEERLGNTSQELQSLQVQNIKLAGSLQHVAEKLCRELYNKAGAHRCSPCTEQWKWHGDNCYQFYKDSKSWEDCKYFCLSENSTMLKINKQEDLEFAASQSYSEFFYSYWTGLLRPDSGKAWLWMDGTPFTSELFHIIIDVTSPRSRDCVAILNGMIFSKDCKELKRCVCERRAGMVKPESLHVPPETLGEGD
The assay is described as follows: flow cytometry on CHO-Clec-1 cells (from FIGURE 21). The method, then: To measure binding of anti-clec on CHO-Clec-1 cells, human Fc Receptor Binding Inhibitor diluted at 1/200 (BD pharmingen; USA; reference 564220) was first added for 30 min at room-temperature to block human Fc receptors on CHO-Clec-1 cells to reduce background. Then, antibodies were incubated for 30 min at 4° C., and washed before stained 15 min at 4° C. with PE-labelled anti-human IgG Fc (Biolegend; USA; reference 409303). Samples were analyzed on citoflex (Beckman coulter)
(In general: Flow cytometry measures light scatter and fluorescence of single cells or particles in a stream.)

Assay [4] concerns the target T2, human CLEC-1A expressed on the cell …. The experiment in a line: flow cytometry on U266 cells. As to the method: (§4) Method: To measure binding of anti-CLEC1 on human U266 cell lines (pre-blocked with Fcblock to blocking FcR), antibodies at different concentrations were incubated for 30 min at 4° C., and washed before stained 30 min at 4° C. with PE-labelled anti-human IgG (Biolegend; reference 409304). Samples were analyzed on Cytoflex cytofluorometer (Beckman Coulter). The MFI of anti-CLEC1 was compared between all anti-CLEC1 antibodies and percentage of stained cells was analysed in all conditions.

Assay [5] addresses T3, recombinant human CLEC-1 protein with His Tag (#1704-CL R&D Systems) (human, UniProt Q8NC01 74-280).
T3 construct: Bought protein; also called His-CLEC1; His Clec-1; not shown: His tag
T3 sequence: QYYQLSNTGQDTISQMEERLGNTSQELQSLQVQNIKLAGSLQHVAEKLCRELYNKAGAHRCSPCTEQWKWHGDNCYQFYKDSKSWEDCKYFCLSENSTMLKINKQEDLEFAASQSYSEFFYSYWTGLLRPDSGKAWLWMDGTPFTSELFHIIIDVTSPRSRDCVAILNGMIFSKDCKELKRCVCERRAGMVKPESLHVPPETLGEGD
The assay is described as follows: ELISA on immobilised His-CLEC1 (from FIGURE 12). As to the method:
(§5) Method: The binding activity of the anti-hCLEC1 antibodies was assessed by ELISA (Enzyme-linked immunosorbent assay). […] A second ELISA assays was performed, like above, with immobilization of CLEC1-Fc (OSE Immunotherapeutics) at 2 μg/ml. A third ELISA assays was performed to see the cross-reactivity with mouse CLEC1. Like above, ELISA was made with immobilization of mouse Fc-CLEC1 (OSE Immunotherapeutics) at 2 μg/ml in carbonate buffer instead of His-Clec. Purified antibodies were added at different concentrations to measure binding. […] Control antibody is a commercial anti-CLEC-1A antibody.

The target of assay [6] is T1, Fc-CLEC1 labelled with Alexa Fluor 488. The assay is described as follows: FACS competition: blocks Fc-CLEC1-A488 (10 nM) binding to CLEC-1 ligand on UV-treated PBMC; % binding. The method, then: as §1, §2
Assay [7] addresses T3, recombinant human CLEC-1 protein with …. The assay is described as follows: Blitz biolayer interferometry, His-CLEC1 on Ni-NTA biosensor, antibody at 20 ug/mL. On the technique in general: Biolayer interferometry detects binding as a change in optical thickness at a sensor tip.
Assay [8] has the same target. The assay is described as follows: ELISA on immobilised His-CLEC1, anti-human IgG peroxidase. On the technique in general: An ELISA detects its analyte on a solid surface through an enzyme-linked reagent.
Assay [9] shares this target. The assay is described as follows: BLI (Blitz), CLEC1-His on Ni-NTA biosensor, antibody at 20 ug/mL; chimeric antibody, FIG. 17. The method, then: Analysis was performed with a BLItz System (Fortébio, #C22-2 No 61010-1, Molecular Devices, San José, USA).
The affinity of the anti-hCLEC1 antibodies, was measured with Blitz system (Forté Bio, C22-2 No 61010-1).

Assay [10] deals with T2, human CLEC-1A expressed on the cell …. The experiment in a line: flow cytometry on U266 cells, PE anti-human IgG; % positive cells. As to the method: as §4
For assay [11] the target is unchanged. The experiment in a line: flow cytometry on U266 cells, PE anti-human IgG; median fluorescence. The method, then:
as §4

Assay [12] has as its target T1, Fc-CLEC1 labelled with Alexa Fluor 488. The experiment in a line: FACS competition: blocks Fc-CLEC1-A488 (10 nM) binding to CLEC-1 ligand on permeabilised Raji cells; % binding cells. As to the method: as §3, §2
For assay [13], the target named is T3, recombinant human CLEC-1 protein with …. The assay is described as follows: ELISA on immobilised His-CLEC1 (from FIGURE 14). As to the method:
as §5

B1: chimeric anti-CLEC-1A antibody 15E3 (antibody, human IgG4 S228P, kappa, V domains shown)
VH: QVQLQQSGPELVKPGASVKMSCKASGFTFTDYVIAWVKVRTGQGLEWIGEIYPGSGSIYYNEKFKGKATLTADKSSNTAYMQLSSLTSEDSAVYFCASSTVVAFDYWGQGTTLTVSS
VL: EIVLTQSPTTLAASPGEKIIITCSDSSSISSNYLHWYQQKPGFSPKLLIYGTSNLASGVPARFSGSGSGTTYSLTIGTMEAEDVATYYCQQGSSIPRTFGGGTKLEIKR
notes: also called 15E3chim; 15E3-VHwt-FcG4m / 15E3-VLwt-CLhk
As a reminder, the IC50 is the point on the concentration scale where inhibition reaches its midpoint. For orientation: EC50 means the concentration at which the effect is half-maximal. By Kd is commonly meant a measure of binding affinity in units of concentration. The koff is a measure of how fast the partners let go of each other. Broadly, the kon is a measure of how fast the partners come together. The EC50 (read off the curve) is the midpoint of the concentration-response curve. With B1, the IC50 was determined as 0.779 µg/mL in assay [1] and 8.67 nM in [2]. The EC50 in assay [3] stood at 0.123 µg/mL; in [4], 0.251 µg/mL; in assay [5], 0.0215 µg/mL. Further, the “IC50 (read off the curve)” value in assay [6] was around 1 µg/mL. In addition, the Kd in assay [7] turned out to be 108 nM. Also, in assay [7], the koff was 0.00169 s⁻¹. In addition, the kon in assay [7] is 15700 M⁻¹ s⁻¹. The “EC50 (read off the curve)” value in assay [8] was around 0.02 µg/mL.

B2: chimeric anti-CLEC-1A antibody 5D1 (antibody, human IgG4 S228P, kappa, V domains shown)
VH: QVQLKESGPGLVAPSQSLSITCTISGFSLTSYGVHWVRQPPGKGLEWLVVIWSDGSTIYNSALKSRLSISKDNSKSQVFLKMNSLQTDDTAMYYCARHGGYYNYFDYWGQGTTLTVSS
VL: DIQMNQSPSSLSASLGDTITITCHASQNINVWLSWYQQKPGNIPKLLIYKASNLHTGVPSRFSGSGSGTGFTLTISSLQPEDIATYYCQQGQSYWTFGGGTKLEIKR
notes: also called 5D1chim; 5D1-VHwt-FcG4m / 5D1-VLwt-CLhk
With B2, the 50% inhibitory concentration (IC50) in assay [1] is 1.19 µg/mL; in [2] it was 13.7 nM. Further, the Kd in [9] is around 10 nM; in assay [7], 17.4 nM. For the same molecule, the EC50 amounted to 0.0847 µg/mL in assay [4] and 0.164 µg/mL in [5]. The “EC50 (read off the curve)” value in assay [10] and in [11] was around 0.06 µg/mL in each case. Also, the “IC50 (read off the curve)” value was around 0.8 µg/mL in [6] and around 10 nM in [12]. For the same molecule, the koff in assay [7] amounted to 0.0012 s⁻¹. Also, the kon in assay [7] came to 68900 M⁻¹ s⁻¹.

B3: chimeric anti-CLEC-1A antibody 11H11 (antibody, human IgG4 S228P, kappa, V domains shown)
VH: QIHLVQSGPELKKPGETVKISCKASGYTFTNFGMNWVKQAPGKGLKWMGWINTNTGEPTYADDFKGRFAFSLETSASTAYLQINNLKNEDTATYFCARGAPAWFTYWGQGTLVTVSA
VL: DIQMTQSPASLSASVGETVTITCRATENIYSYLAWYQQKQGKSPQFLVYNAKTLAEGMPSRFSGSGSGTQFSLKINILQPEDFGTYYCQHHFGTPLTFGAGTKLELKR
notes: also called 11H11chim; 11H11-VHwt-FcG4m / 11H11-VLwt-CLhk
The molecule B3 returned an IC50 in [2] of 5.84 nM. Moreover, the figures for the EC50 in [3], in [13] and in assay [4] were 1.38 µg/mL, 0.00846 µg/mL and 1.12 µg/mL, respectively. Moreover, the Kd in [7] is 0.448 nM. Moreover, the koff in assay [7] worked out at 0.00019 s⁻¹. Further, in assay [7], the kon is 188000 M⁻¹ s⁻¹.
